Source: patent US10799597B2, “Subcutaneous administration of antibody-drug conjugates for cancer therapy” (Immunomedics, Inc., priority 2017, dated 2020)

Legend:
[1] = Tolerability of multiple subcutaneous injections of IMMU-132 in nude mice; assay type: in vivo, female nude mice; conditions: s.c. 2 mg or 500 μg twice a week for four weeks
Procedure: One group of two mice received 2 mg injections (HED=8 mg/kg) while a second group of two animals, 500 μg (HED=2 mg/kg). For comparison, one mouse received only saline injections. Each injection (100 μL) was administered at the same location (i.e., right rear flank) twice a week for four weeks. Mice were weighed on the day of injection and the injection site examined for any signs of toxicity (i.e, rash, ulceration, etc.). If any occur, it would be documented by photographing the area. One day after the last injection, the mice were anesthetized and the injection site photographed (FIG. 12). This was repeated one week after the final injection (FIG. 13).

[2] = test system: human urinary bladder carcinoma (5637); assay: Efficacy of i.v. vs. s.c. IMMU-132 in 5637 bladder carcinoma xenografts; assay type: in vivo, athymic nude mice; conditions: for mean tumor volume: day 82; for mice still alive on day 82: N=5; for median survival time (MST): post-therapy initiation
Procedure: 5637 cells were expanded in tissue culture and harvested with trypsin/EDTA. Female athymic nude mice were injected s.c. with 200 μL of 5637 cell suspension mixed 1:1 with matrigel such that 1×10^7 cells was administered to each mouse. Once tumors reached approximately 0.25 cm^3 in size (15 days later), the animals were divided up into three different treatment groups of 4-5 mice each. For the i.v. injections (N=5), mice receive 500 μg i.v. twice a week for four weeks. […] A final group of mice received only saline (N=4) and served as the untreated control. Tumors were measured and mice weighed twice a week. Mice were euthanized for disease progression if their tumor volumes exceeded 1.0 cm^3 in size.

[3] = Phase I/II trial of IMMU-132: MTD and toxicity profile; assay type: in vivo, human; conditions: 75 patients in the full trial
Procedure: Patients with metastatic cancers were enrolled after failing standard therapy, starting at a dose of 8.0 mg/kg given on days 1 and 8 of a 3-week cycle.

[4] = Tolerability in Swiss-Webster mice; assay type: in vivo

IMMU-132: ADC of the humanized hRS7 anti-Trop-2 antibody conjugated by a pH-sensitive linker (CL2A) to SN-38
skin irritation at the site of multiple injections [1]: no evidence of skin irritation | mean tumor volume ([2]; i.v. 500 μg twice a week for four weeks): 0.066±0.076 cm^3 | mice still alive on day 82 ([2]; i.v.): 5 | median survival time (MST) ([2]; i.v.): > 67 days | mean tumor volume ([2]; s.c. 500 μg twice weekly for four weeks): 0.111±0.057 cm^3 | mice still alive on day 82 ([2]; s.c.): 5 | median survival time (MST) ([2]; s.c.): > 67 days | Grade 3 diarrhea [3]: 6.7% | Grade 3 neutropenia [3]: 17.3% | Grade 4 neutropenia [3]: 2.7% | chloride levels, range ([4]; 2 highest dosage groups, upper end of normal range 115 mmol/L): 116 to 127 mmol/L | weight loss ([4]; 2 i.p. doses over 3 days of 4, 8, and 12 mg SN-38/kg): minimal transient weight loss | mice with elevated chloride levels ([4]; 2×8 mg/kg group): 57% | mice with slightly elevated glucose levels ([4]; 2×8 mg/kg, of 7 mice): 5 | elevated glucose levels, range ([4]; 2×8 mg/kg, upper end of normal 263 mg/dL): 273 to 320 mg/dL | mice with elevated chloride levels ([4]; 2×12 mg/kg group): 100% | aspartate transaminase (AST) ([4]; seven days after treatment, all 3 treatment groups, normal limit 298 U/L): rose above normal levels
